Experimental data as given in article PMC8199443.

Target: OpuABC-SS, OpuABC subunit of the ABC transporter OpuA with a C-terminal TwinStrepII-tag (Lactococcus lactis)
Assay: SEC; affinity-purified OpuA reconstituted in MSP1D1 nanodiscs (DOPE/DOPC/DOPG; OpuA/MSP1D1/lipid 1:20:2000 or 1:20:1000), Superdex 200 Increase 10/300 GL, 50 mM KPi pH 7.0, 200 mM KCl; peak fraction on SDS-PAGE

Work on “OpuABC-SS, OpuABC subunit of the ABC transporter OpuA with a C-terminal TwinStrepII-tag (natural protein)” yielded a stoichiometry N of 2.
